Literature values in patent US9394339B2, “Stabilized formulations of peptides and proteins protecting against non-enzymatic degradation” (Lyotropic Therapeutics, Inc., priority 2007, dated 2016).

B1: Ribonuclease inhibitor (1A4Y): human protein (protein, UniProt P13489 2-461, looked up)
Ribonuclease inhibitor: SLDIQSLDIQCEELSDARWAELLPLLQQCQVVRLDDCGLTEARCKDISSALRVNPALAELNLRSNELGDVGVHCVLQGLQTPSCKIQKLSLQNCCLTGAGCGVLSSTLRTLPTLQELHLSDNLLGDAGLQLLCEGLLDPQCRLEKLQLEYCSLSAASCEPLASVLRAKPDFKELTVSNNDINEAGVRVLCQGLKDSPCQLEALKLESCGVTSDNCRDLCGIVASKASLRELALGSNKLGDVGMAELCPGLLHPSSRLRTLWIWECGITAKGCGDLCRVLRAKESLKELSLAGNELGDEGARLLCETLLEPGCQLESLWVKSCSFTAACCSHFSSVLAQNRFLLELQISNNRLEDAGVRELCQGLGQPGSVLRVLWLADCDVSDSSCSSLAATLLANHSLRELDLSNNCLGDAGILQLVESVRQPGCLLEQLVLYDIYWSEEMEDRLQALEKDKPSLRVIS
B2: Lithostathine (1LIT): human protein (protein, UniProt P05451 23-166, looked up)
Lithostathine-1-alpha: QEAQTELPQARISCPEGTNAYRSYCYYFNEDRETWVDADLYCQNMNSGNLVSVLTQAEGAFVASLIKESGTDDFNVWIGLHDPKKNRRWHWSSGSLVSYKSWGIGAPSSVNPGYCVSLTSSTGFQKWKDVPCEDKFSFVCKFKN
B3: Procarboxypeptidase A2 (1AYE): human protein (protein, UniProt P48052 19-419, looked up)
pro-form: LETFVGDQVLEIVPSNEEQIKNLLQLEAQEHLQLDFWKSPTTPGETAHVRVPFVNVQAVKVFLESQGIAYSIMIEDVQVLLDKENEEMLFNRRRERSGNFNFGAYHTLEEISQEMDNLVAEHPGLVSKVNIGSSFENRPMNVLKFSTGGDKPAIWLDAGIHAREWVTQATALWTANKIVSDYGKDPSITSILDALDIFLLPVTNPDGYVFSQTKNRMWRKTRSKVSGSLCVGVDPNRNWDAGFGGPGASSNPCSDSYHGPSANSEVEVKSIVDFIKSHGKVKAFITLHSYSQLLMFPYGYKCTKLDDFDELSEVAQKAAQSLRSLHGTKYKVGPICSVIYQASGGSIDWSYDYGIKYSFAFELRDTGRYGFLLPARQILPTAEETWLGLKAIMEHVRDHPY
modifications: pro-form
B4: Electron transfer flavoprotein (1EFV): human protein (protein, UniProt P13804 20-333; P38117 2-255, looked up)
Electron transfer … 1: QSTLVIAEHANDSLAPITLNTITAATRLGGEVSCLVAGTKCDKVAQDLCKVAGIAKVLVAQHDVYKGLLPEELTPLILATQKQFNYTHICAGASAFGKNLLPRVAAKLEVAPISDIIAIKSPDTFVRTIYAGNALCTVKCDEKVKVFSVRGTSFDAAATSGGSASSEKASSTSPVEISEWLDQKLTKSDRPELTGAKVVVSGGRGLKSGENFKLLYDLADQLHAAVGASRAAVDAGFVPNDMQVGQTGKIVAPELYIAVGISGAIQHLAGMKDSKTIVAINKDPEAPIFQVADYGIVADLFKVVPEMTEILKKK
Electron transfer … 2: AELRVLVAVKRVIDYAVKIRVKPDRTGVVTDGVKHSMNPFCEIAVEEAVRLKEKKLVKEVIAVSCGPAQCQETIRTALAMGADRGIHVEVPPAEAERLGPLQVARVLAKLAEKEKVDLVLLGKQAIDDDCNQTGQMTAGFLDWPQGTFASQVTLEGDKLKVEREIDGGLETLRLKLPAVVTADLRLNEPRYATLPNIMKAKKKKIEVIKPGDLGVDLTSKLSVISVEDPPQRTAGVKVETTEDLVAKLKEIGRI
B5: Neutrophil (gelatinase) (1DFV): human protein (protein, UniProt P80188 21-198, looked up)
Neutrophil …: QDSTSDLIPAPPLSKVPLQQNFQDNQFQGKWYVVGLAGNAILREDKDPQKMYATIYELKEDKSYNVTSVLFRKKKCDYWIRTFVPGCQPGEFTLGNIKSYPGLTSYLVRVVSTNYNQHAMVFFKKVSQNREYFKITLYGRTKELTSELKENFIRFSKSLGLPENHIVFPVPIDQCIDG
B6: Phosphatidylethanolamine binding protein (1BD9): human protein (protein, UniProt P30086 2-187, looked up)
Phosphatidylethanolamine-bindi …: PVDLSKWSGPLSLQEVDEQPQHPLHVTYAGAAVDELGKVLTPTQVKNRPTSISWDGLDSGKLYTLVLTDPDAPSRKDPKYREWHHFLVVNMKGNDISSGTVLSDYVGSGPPKGTGLHRYVWLVYEQDRPLKCDEPILSNRSGDHRGKFKVASFRKKYELRAPVAGTCYQAEWDDYVPKLYEQLSGK
B7: Thioltransferase (1JHB): human protein (protein, UniProt P35754 2-106, looked up)
Glutaredoxin-1: AQEFVNCKIQPGKVVVFIKPTCPYCRRAQEILSQLPIKQGLLEFVDITATNHTNEIQDYLQQLTGARTVPRVFIGKDCIGGCSDLVSLQQSGELLTRLKQIGALQ
B8: Ribonuclease 4 (1RNF): human protein (protein, UniProt P34096 29-147, looked up)
Ribonuclease 4: QDGMYQRFLRQHVHPEETGGSDRYCNLMMQRRKMTLYHCKRFNTFIHEDIWNIRSICSTTNIQCKNGKMNCHEGVVKVTDCRDTGSSRAPNCRYRAIASTRRVVIACEGNPQVPVHFDG
B9: Quinone reductase type 2 (1QR2): human protein (protein, UniProt P16083 1-231, looked up)
Ribosyldihydronicotinamide …: MAGKKVLIVYAHQEPKSFNGSLKNVAVDELSRQGCTVTVSDLYAMNLEPRATDKDITGTLSNPEVFNYGVETHEAYKQRSLASDITDEQKKVREADLVIFQFPLYWFSVPAILKGWMDRVLCQGFAFDIPGFYDSGLLQGKLALLSVTTGGTAEMYTKTGVNGDSRYFLWPLQHGTLHFCGFKVLAPQISFAPEIASEEERKGMVAAWSQRLQTIWKEEPIPCTAHWHFGQ
B10: O6-alkylguanine-DNA alkyltransferase (1EH6): human protein (protein, UniProt P16455 1-207, looked up)
Methylated-DNA--protein-cystei …: MDKDCEMKRTTLDSPLGKLELSGCEQGLHEIKLLGKGTSAADAVEVPAPAAVLGGPEPLMQCTAWLNAYFHQPEAIEEFPVPALHHPVFQQESFTRQVLWKLLKVVKFGEVISYQQLAALAGNPKAARAVGGAMRGNPVPILIPCHRVVCSSGAVGNYSGGLAVKEWLLAHEGHRLGKPGLGGSSGLAGAWLKGAGATSGSPPAGRN
B11: Eosinophil cationic protein (1QMT): human protein (protein, UniProt P12724 28-160, looked up)
Eosinophil cationic protein: RPPQFTRAQWFAIQHISLNPPRCTIAMRAINNYRWRCKNQNTFLRTTFANVVNVCGNQSIRCPHNRTLNNCHRSRFRVPLLHCDLINPGAQNISNCTYADRPGRRFYVVACDNRDPRDSPRYPVVPVHLDTTI
B12: -Lactalbumin (1B9O): human protein (protein, UniProt P00709 20-142, looked up)
Alpha-lactalbumin: KQFTKCELSQLLKDIDGYGGIALPELICTMFHTSGYDTQAIVENNESTEYGLFQISNKLWCKSSQVPQSRNICDISCDKFLDDDITDDIMCAKKILDIKGIDYWLAHKALCTEKLEQWLCEKL
B13: Uroporphyrinogen decarboxylase (1URO): human protein (protein, UniProt P06132 1-367, looked up)
Uroporphyrinogen decarboxylase: MEANGLGPQGFPELKNDTFLRAAWGEETDYTPVWCMRQAGRYLPEFRETRAAQDFFSTCRSPEACCELTLQPLRRFPLDAAIIFSDILVVPQALGMEVTMVPGKGPSFPEPLREEQDLERLRDPEVVASELGYVFQAITLTRQRLAGRVPLIGFAGAPWTLMTYMVEGGGSSTMAQAKRWLYQRPQASHQLLRILTDALVPYLVGQVVAGAQALQLFESHAGHLGPQLFNKFALPYIRDVAKQVKARLREAGLAPVPMIIFAKDGHFALEELAQAGYEVVGLDWTVAPKKARECVGKTVTLQGNLDPCALYASEEEIGQLVKQMLDDFGPHRYIANLGHGLYPDMDPEHVGAFVDAVHKHSRLLRQN
B14: Thymidylate synthase (1HW3): human protein (protein, UniProt P04818 2-313, looked up)
Thymidylate synthase: PVAGSELPRRPLPPAAQERDAEPRPPHGELQYLGQIQHILRCGVRKDDRTGTGTLSVFGMQARYSLRDEFPLLTTKRVFWKGVLEELLWFIKGSTNAKELSSKGVKIWDANGSRDFLDSLGFSTREEGDLGPVYGFQWRHFGAEYRDMESDYSGQGVDQLQRVIDTIKTNPDDRRIIMCAWNPRDLPLMALPPCHALCQFYVVNSELSCQLYQRSGDMGLGVPFNIASYALLTYMIAHITGLKPGDFIHTLGDAHIYLNHIEPLKIQLQREPRPFPKLRILRKVEKIDDFKAEDFQIEGYNPHPTIKMEMAV
B15: Phenylalanine hydroxylase (1DMW): human protein (protein, UniProt P00439 1-452, looked up)
Phenylalanine-4-hydroxylase: MSTAVLENPGLGRKLSDFGQETSYIEDNCNQNGAISLIFSLKEEVGALAKVLRLFEENDVNLTHIESRPSRLKKDEYEFFTHLDKRSLPALTNIIKILRHDIGATVHELSRDKKKDTVPWFPRTIQELDRFANQILSYGAELDADHPGFKDPVYRARRKQFADIAYNYRHGQPIPRVEYMEEEKKTWGTVFKTLKSLYKTHACYEYNHIFPLLEKYCGFHEDNIPQLEDVSQFLQTCTGFRLRPVAGLLSSRDFLGGLAFRVFHCTQYIRHGSKPMYTPEPDICHELLGHVPLFSDRSFAQFSQEIGLASLGAPDEYIEKLATIYWFTVEFGLCKQGDSIKAYGAGLLSSFGELQYCLSEKPKLLPLELEKTAIQNYTVTEFQPLYYVAESFNDAKEKVRNFAATIPRPFSVRYDPYTQRIEVLDNTQQLKILADSINSEIGILCSALQKIK
B16: Glucosamine-6-phosphate deaminase isomerase (1D9T): human protein (protein, UniProt P46926 1-289, looked up)
Glucosamine-6-phosphate …: MKLIILEHYSQASEWAAKYIRNRIIQFNPGPEKYFTLGLPTGSTPLGCYKKLIEYYKNGDLSFKYVKTFNMDEYVGLPRDHPESYHSFMWNNFFKHIDIHPENTHILDGNAVDLQAECDAFEEKIKAAGGIELFVGGIGPDGHIAFNEPGSSLVSRTRVKTLAMDTILANARFFDGELTKVPTMALTVGVGTVMDAREVMILITGAHKAFALYKAIEEGVNHMWTVSAFQQHPRTVFVCDEDATLELKVKTVKYFKGLMLVHNKLVDPLYSIKEKETEKSQSSKKPYSD

Details: aqueous solution, pH 7.4, 37° C., Tris-HCl buffer

Compared with B1, B2 is higher in “T1/10 (time to 10% degradation by deamidation)” value: 68 days for the first, 74 days for the second.

Compared with B3, B4 is higher in “T1/10 (time to 10% degradation by deamidation)” value: 23 days for the first, 29 days for the second.

Going from B5 to B6, the “T1/10 (time to 10% degradation by deamidation)” value rises from 44 days to 100 days.

Going from B7 to B8, the “T1/10 (time to 10% degradation by deamidation)” value falls from 71 days to 20 days.

Compared with B9, B10 is lower in “T1/10 (time to 10% degradation by deamidation)” value: 50 days for the first, 46 days for the second.

Compared with B11, B12 is lower in “T1/10 (time to 10% degradation by deamidation)” value: 65 days for the first, 20 days for the second.

Going from B13 to B14, the “T1/10 (time to 10% degradation by deamidation)” value rises from 0.15 days to 0.41 days.

In the case of B15, the “T1/10 (time to 10% degradation by deamidation)” value is given as 33 days.

Same assay, conditions: buffer, pH 7.4

For B16, the “T1/2 (half-life, deamidation)” value is given as 320 days.

Same assay, conditions: pH 7.4

For B16, the “T1/10 (time to 10% degradation by deamidation)” value is listed as 49 days.

Same assay, conditions: pH 7.4, 37° C., […] Tris.HCl buffer

In the case of B13, the “time to lose 10% potency” value is given as “about 3.6 hours”.
